Assay results published in the nanobody polyreactivity screen of Harvey et al. (2022).

test: yeast display, Sf9 membrane polyspecificity reagent, FACS + sequencing; frameworks hold sequencing errors
Method in brief: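 Using colony PCR, genes from sorted yeast display clones were amplified, then sequenced on MiSeq at 2 × 250 and filtered by CDR length. The clones had been stained with 10% biotinylated, detergent-solubilized Sf9 membrane reagent for 1 hour at 4 °C and sorted by FACS into low and high (top ~1%) gates on anti-HA and streptavidin fluorescence. Polyreactivity labels come from the gate of origin.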

Sequence	polyreactivity (PSR sort gate)
QVQLVESGGGLVQAGGSLRLSCAASGRIFTSYAMGWSRQAPGKERELVATISSADGTKYADSVKGRFTISRDNAKNTVYLQMNSLKPEDTAVYYCNAYVWSWNDYWGQGTQVTVSS	low polyreactivity
QVQHVESGGGLVQAGVSLRLSCAASGSTFRRYAMGWYRQSRGKERELVATISSRGGSTNYADSVKGRFTISRDNAKNTVYLQMNSLNPEDTSFYYCARSTSLVTKDDYWGQGTQVTVSS	high polyreactivity
QVQLVESGGGLVQAGGSLRLSCAASVSIFWSYAMGWSRLAPGKERELVASISRSTGRTRYADSVKGRFTFSRDNAKNTVDLQMNSLKPEDTAVYYCNAEKRGQSYRFDYWGQGTQVTVSS	high polyreactivity
QVQIVESGAGLVQAGGSLRISCAASGRIFRYYAMGWYRQAPGKERELVAAITVSGGSKYYADSVKGRFTISRDNAKNTVYLQMNSLKPEDTAVYYCAKALRSYLFIHFDYWVQGTQVTVSS	low polyreactivity
QVQLVESGGGLVQAGGSLRLSCAASGSIFGYYTIGWYRQAPGKEREFVAAITQSGGSTYYADSVKGRFTISRDNAKNTVYLQMNSLKPEDTAVYYCAKQGYLKWGGTGDYWGQGTQVTVSS	high polyreactivity
QVQLVESGGGLVQAGGSLRLSCAASGRTFISYAMGWYRQAPGKERELVAAISGRGGSTYFADSVKGRFTISRDNAKNTVYLQMNSLKQEDTAVYYCAAEWFGVYRRYKYDYWGQGTQVTVSS	low polyreactivity
QVQLVESGGGLVQAGGSLRLSCAASGYTFYKYAMGWYRQAPGKEREFVADITQSGGSTYYADSVKGRFTISRDNAKNTVYLEMNSLKPEDTAVYYCNAAYSYRPDPKGYDYWGQGTQVTVSS	low polyreactivity
QVQHVESGGGLVQAGGSLRLSCAASRSIFYYYAMGWYRQPPGKERELVAAISSDGTNYADSVKGRFTITRDNAKNTVYLQMNSLNPEDTAVYYCAKDHCTTSYDEGDYWGQGTQVTVSS	low polyreactivity
QVQLVESGGGLVQAGGSLRLSCAASGRTFGVNTMGWYRQAPGKERELVASISTSGGSTYADSVKGRFTISRDNAKNTVYLQMISLKPEDTAVYYCARTYYWYLRVDYWGQGTQVTVSS	low polyreactivity
QVQLVESGGGLVQAGGSLRLSCAASGFIFVFYAMGWYRQAPGKERELVAAITWSGGGTYYADSVKGRFTISRDNAKNTVYLQMNSLKPEDTAVYYCNAEEPQYYYVLDKLYDYWGQGTQVTVSS	low polyreactivity
QVQLVESGGGLLQAGGSLRLSCAASGRIFIANAMGWNRQAPRKERDLVAAITSDGGTNYADSVKGRFTISRDNAKITVYLQLISLKPEDTAVYYCAATYQIGYYYVWEYDYWGQGTQLTVSS	low polyreactivity
QVQLVESGGGLVQAGGSLRLSCAASGLTFSENAMGWYRQAPGKERELVAAISWSGTTTYYADSVKGRFTISRDNAKNTVYLQMNSLKPEDTAVYYCAADTIFYGYWGQGTQVTVSS	low polyreactivity
QVQIVESGRGLVQAGGSLSLSCAASGNIFYRYTMGWYRQAPGKERELVAAISRTGGSTYYADSVKGRFTISRDNAKNTVYLQMNSLKPEDTAVYYCAVRYMDPPYFYSKRFGYWGQGTQVTVSS	high polyreactivity
QVQLVESGGGLVQAGASLRLSCAASGSIIDDYAMGWYRQAPGKERELVAAITYSGGTTYYADSVKGRFTISRDNAKNTVYLQLNSLKREDTAVYYCAAEWRVYYATYGYWGQGTQVTVSS	high polyreactivity
QVQLVESGGGLVQAGGSLRLSCASSGSTFAYYVMGRYIHAPGKEWELVAAISRGGRTYYADSVKGRFTISRDNAKNTVYFQLNSLKPEDTAVYYCAAEGASLAKYDYCGQGTQVTVSS	low polyreactivity
VVQLVESGGGLVQAGGRLRLSCAASGIIFGRYAMGWYRQAPGKERELVASITGNGSTTYYADSVKGRFTISRDNAKNTVYLQMNSLKPDDTAGYYCAADIVVGSPSAEFDYWGQGTQVTVSS	low polyreactivity
QVQLVESGGGLVQAGGSLRLSCAASGLTFYGYGMGWYRPGPGKERELVASITSGGNTYYADSVKGRFTISRDNAKNNVYLQMYSLKPEDNAVSYCAVTAIALYYSSGYYWGQGTQVTVSS	low polyreactivity
QVQLVESGGGLVQAGGSLRLSCAASGSTFRANAMGWYRQAPGKESELVADIRFSDGSTYYADSVKGRFTISRDNAKNTVYLQMNSLKPEDTAVYYCAARPSGRGYYLLGYWGQGTQVTVSS	low polyreactivity
QVQLVESGGGLVQAGGSLRLSCAASGRTLRYYAMGWYRQAPGKERELVATITGSGGSTYYADSVKGRFTISRDNAKNTVYLQMNSLKPEDTAVYYCNARKVRYPYRWYDYWGQGTQVTVSS	high polyreactivity
QVQLVESGGGLVQAGGSLRLSCAASGRTFSVNAMGWYRQAPGKERELVAAITSGGSTYYADSVKGRFTISRDNAKNTVYLQMNSLKPEDTAVYYCNAVGRLRRSRLRMDYWGQGTQVTVSS	high polyreactivity
QVQRVESGGRLVQAGGSLRLSCAASGFIFRYYAMGWYRQAPGKERELVAAISSRGGTTYYADSVKGRFTISRDNPNNTVYLQMNSLKPEDTPVDYGAAGGGRFRHGGRDYWGQGTQVTVSS	high polyreactivity
QVQLVESGGGLVQAGGSLRLSCAASGSTFWTNAMAWYRQSPGKERELVATITYSTGTYADSVKGRFTISRDNAKNTVYLQMNSLKPEDTAVYYCAAEVVAQMNYWGQGTQVTVSS	low polyreactivity

Sequence	polyreactivity (PSR sort gate)
QVQLGESGGGLVQAGGSLRLSCAASGNTFVSNAMGWYRQAPGKERELVAAINSGGSTNYADSVKGRFTISRDNAKNTVYLQMNSLKPEDTAVYYCNKDYDYPQRYWMDYWGQGTQVTVSS	low polyreactivity
QVQLVESGGGLVQAGGSLRLSCAASGSIFFPYAMGWYRQAPGKERELVAAIDTSSGSTYSADSVKGRFTISRDNAKNTVYLQMNSLKPEDTAVYYCAREALQYPGLKYNYWGQGTQVTVSS	low polyreactivity
QVQLVESGGGLVQAGGSLRLSCAASGNTLDAYAMGWYRQAPGKERELVAAITSGGSTYYADSVKGRFTISRDNAKNTVYLQMNSLKPEDTAVYYCNADGHPSDPCYDYWGQGTQVTVSS	low polyreactivity
QVQLVESGGGLVQAGGSLRLSCAASGSIFTTYAMGWYREAPGKERELVAAITDTSSTNYADSVKGRFTISRDNAKKTVFLQMNSLKPEDTAVYYCAVDLGYEYDWGQGTQVTVSS	low polyreactivity
QVQLVESGGGLVQAGGSLRLSCAASGRTFVDSVMGWYRQAPGKERELVAAISRSGSTYYADSVKGRFTISRDNAKNTVYLQMNSLKPEDTAVYYCAADWSFNRSSGQYGFYYWGQGTQVTVSS	low polyreactivity
QVQLVESGGGLVQEGRSLRLSCAASGSIFTPYAMGWYRQAPGKERELVADINSGGSTDYADSVKGRFTISRDNAKNTVYLQMNSLKPEDTAVYYCASTWSFYFILYDYWGQGTQVTVSS	high polyreactivity
QVQLVESGGGLVQAGGSLRLSCAASGFTFPSYTMGWYRQAPGKERELVAAISWSGGRTYYADSVKGRFTISRDNAKITVYLQKNSLKPEETAVYYCAAGYRTGGDSGDYWGQGTQVTVSS	high polyreactivity
QVQLVESGGGLVQAGGSLRLSSAASGRTLRGYAMGWYRQAPGKERELVAAITWSGGSTYYADSVKGRFTISRDNAKNTVYLQMNSLKPEDTAVYYCNARSYPDLYDYWGQGTQVTVSS	low polyreactivity
QVQLVESGGGLVQAGGSLRLSCAASGITFYFYVMGWYRQAPGKERELVADISTSDDSTYYADSVKGRFTISRDNAKNTVYLQMNSLKPEDTAVYYCATATRTYSAWYEYDYWGQGTQVTVSS	low polyreactivity
QVQLVESGGGLVQAGGSLRLSCAASGFTFSRNAMGWYRQAPGKERELVAAISQSGGSTYYADSVKGRFTISRDNAKNTVYLQMHSLKPEDTAVYYCAAVGRLARRDYWGQGTQVTVSS	high polyreactivity
QVQLVDSGGGLVQAGGSHRLSCAASGRIFVAYAMGWYRQAPGKERELVAGISRGGSTYYADSVKGRFTISRDNAKNTVYLQMNSLKPEDTAVYYCATDQRVRRYDYWGQGTQVTVSS	low polyreactivity
QVQLVESGGGLVQAGGSLRLSCAASGRTFVRNTMGWYRQAPGKEREFVAAISRSGGNTNYADSVKGRFTISRDNAKNTVYLQMNSLKPEDTAVYYCATRAGYQVYPNKMNYWGQGTQVTVSS	high polyreactivity
QVQLVESGGGLVQAGGSLRLSCAASGRTFQEYAMGWYRQAPGKERELVADISDGGSTNYADSVKGRFTISRDNAKNTVYLQMNSLKPEDTAVYYCAADQYHGVGINFRSDYDYWGQGTQVTVSS	low polyreactivity
QVHLVESGGGLVQAGGSLRLSCAAAGRTFSSYAMAWYRQAPWQERELVAAITSGGTTYYADSVKGRFTISRDNAKNTVDLQMNSLKAEDPAFYYCARRSYLYDSYLTKKKYYDYCGQGTQVTVSS	low polyreactivity
QVQLVESGGGLVQAGGSLRLSCAASGIILAFNAMGWYRQAPGKEREFVASISQGGSSTYYADSVKGRFTISRDYAKNTVYLQMNSLKPEVTAVYFCAARSSRVRSPYQRYYYWGQGTQVTVSS	high polyreactivity
QVQLVESGGGLVQAGGSLRLSCAGSGITFVAYAMGWYRQAPGKDRELVAAISGGGGSTYYADSVKGRFTISRDNAKNTVYLQMNSLKPEDTAVYDCNAEPYTSSGGYRGYDFDYWGQGTQVTVSS	low polyreactivity
QVQLVESGGGLVQAGGSLRLSCAASGRIFGYYAMGWYRQAPGKERELVAAIDGSGGTTYYADSVKGRITISRDNAKNSVYLQMNSLKPEATAVYYCAARGYNSKYGYWGQGTQVTVSS	high polyreactivity
QVQLVESGGGLVQAGGSLRLSCAASGFTFRLYTMGWYRQAPGKERELVAAITYSGDSTYYADSVKGRFTISRDYAKNTVYLQMNSLKPEDTAVYYCAARKYYARYYWGQGSQVTVSS	high polyreactivity
QVQLVESGGGLVQAGGSLRLSCAASGFIFYRYAMGWYRQAPGKERELVAAISRGDSTYYADSVKGRFTISRDNAKNTVYLQMNSLKPEDTAVYYCNADRPRYTYRATTYTGRYDYWGQGTQVTVSS	low polyreactivity
QVQLVESGGGLVQARGSLRLSCAASGFTFSDYVMGWYRQAPGKERELVAVITSGSSTYYADSVKGRFTISRDNAKNTVYLQMNSLKPEDTAVYYCNADPDDGYFSDFDYWGQGTQVTVSS	low polyreactivity
QVQLVESGGGLVQAGGRLRLSCAASGITFDLYAMGWYSQAPGKERELVAAISISSTSTYYADSVKGRFTISRDYEKNTVYLQMNSLKPEDTAVYYCNAVPSSKTFWFDYWGQGTQVTVSS	low polyreactivity
